# Source: IntAct's records for PubMed 18566586
# B1: RAC-alpha serine/threonine-protein kinase (Mus musculus), P31750 (parent)
# chain: MNDVAIVKEGWLHKRGEYIKTWRPRYFLLKNDGTFIGYKERPQDVDQRESPLNNFSVAQCQLMKTERPRPNTFIIRCLQWTTVIERTFHVETPEEREEWATAIQTVADGLKRQEEETMDFRSGSPSDNSGAEEMEVSLAKPKHRVTMNEFEYLKLLGKGTFGKVILVKEKATGRYYAMKILKKEVIVAKDEVAHTLTENRVLQNSRHPFLTALKYSFQTHDRLCFVMEYANGGELFFHLSRERVFSEDRARFYGAEIVSALDYLHSEKNVVYRDLKLENLMLDKDGHIKITDFGLCKEGIKDGATMKTFCGTPEYLAPEVLEDNDYGRAVDWWGLGVVMYEMMCGRLPFYNQDHEKLFELILMEEIRFPRTLGPEAKSLLSGLLKKDPTQRLGGGSEDAKEIMQHRFFANIVWQDVYEKKLSPPFKPQVTSETDTRYFDEEFTAQMITITPPDQDDSMECVDSERRPHFPQFSYSASGTA
# Variants of: B1
# Conditions: with hs90a_mouse Hsp90aa1, P07901
row,Variant,effect of a mutation on the interaction
1,T450A,increasing interaction

# Variants of: B1
# Conditions: with hs90a_mouse Hsp90aa1, P07901
# Remark: another data set of the same source
row,Variant,effect of a mutation on the interaction
1,T443A,increasing interaction

# Variants of: B1
# Conditions: with hs90a_mouse Hsp90aa1, P07901
# Remark: another data set of the same source
row,Variant,effect of a mutation on the interaction
1,K182M,increasing interaction
2,R222M,increasing interaction

# Variants of: B1
# Conditions: with hs90a_mouse Hsp90aa1, P07901
# Remark: another data set of the same source
row,Variant,effect of a mutation on the interaction
1,K163M,increasing interaction
